Measurements taken from US20190202883A1 (Takeda / Millennium, published 2019).
Square brackets hold non-standard residues; d marks the D form. Side chains are listed from the residue outwards. Phe(2-F) = N[C@@H](Cc1ccccc1F)C(=O)O; αMeF = C[C@](N)(Cc1ccccc1)C(=O)O; Iva = CC[C@](C)(N)C(=O)O; Oda = not defined here; Aib = CC(C)(N)C(=O)O

What was measured:
Test in all cases: cell-based or functional assay
human GLP-1R = human GLP-1R (human, UniProt P43220 24-463)
human GIPR = target: T1, human GIPR (human, UniProt P48546 22-466)
T1 sequence (looked up): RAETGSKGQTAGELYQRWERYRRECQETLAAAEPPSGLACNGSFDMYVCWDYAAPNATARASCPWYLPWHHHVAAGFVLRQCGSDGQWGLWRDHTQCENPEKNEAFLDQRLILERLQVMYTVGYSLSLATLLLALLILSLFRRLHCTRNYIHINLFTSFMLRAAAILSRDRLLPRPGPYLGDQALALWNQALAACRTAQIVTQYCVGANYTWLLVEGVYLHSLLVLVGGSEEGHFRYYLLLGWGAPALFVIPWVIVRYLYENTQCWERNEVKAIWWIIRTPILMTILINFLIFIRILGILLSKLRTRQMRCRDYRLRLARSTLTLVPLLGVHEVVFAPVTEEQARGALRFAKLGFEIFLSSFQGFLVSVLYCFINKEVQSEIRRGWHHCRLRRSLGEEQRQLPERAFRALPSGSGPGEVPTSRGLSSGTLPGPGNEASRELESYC

human NPY2R = target: T2, human NPY2R (human, UniProt P49146 1-381)
T2 sequence (looked up): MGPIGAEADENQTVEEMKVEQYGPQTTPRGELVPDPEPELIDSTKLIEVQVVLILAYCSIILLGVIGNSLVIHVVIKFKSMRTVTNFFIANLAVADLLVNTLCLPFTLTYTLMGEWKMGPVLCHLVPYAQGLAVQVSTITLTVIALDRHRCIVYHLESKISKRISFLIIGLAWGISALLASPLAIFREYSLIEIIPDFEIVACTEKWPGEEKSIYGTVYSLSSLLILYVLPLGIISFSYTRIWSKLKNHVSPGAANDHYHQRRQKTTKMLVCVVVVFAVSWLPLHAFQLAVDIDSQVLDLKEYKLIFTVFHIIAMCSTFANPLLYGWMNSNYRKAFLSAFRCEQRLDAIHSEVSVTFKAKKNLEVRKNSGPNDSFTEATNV

Row | Binder | Agonist activity (EC50), Cre-luc reporter assay (human GLP-1R) [nM] | Agonist activity (EC50), Cre-luc reporter assay (human GIPR) [nM] | Agonist activity (EC50), Cre-luc reporter assay (human NPY2R) [nM]
1 | H-Y[Aib]EGT[αMeF]TSDK([Gly-Gly-Gly-Gly-Pal])AI[Aib]LDKQRQ[Iva]EFVRHLLNK[Aib]TRQRY-NH2 | 0.079 | 0.066 | 0.099
2 | H-Y[Aib]EGT[αMeF]TSDK([Gly-Gly-Gly-Gly-Oda])AI[Aib]LDKQRQ[Iva]EFVRHLLNK[Aib]TRQRY-NH2 (reading uncertain; also: printed as H-Tyr-Aib-Glu-Gly-Thr-αMePhe-Thr-Ser-Asp-Lys(-Gly-Gly-Gly-Gly-Oda)-Ala-Ile-Aib-Leu-Asp-Lys-Gln-Arg-Gln-Iva-Glu-Phe-Val-Arg-His-Leu-Leu-Asn-Lys-Aib-Thr-Arg-Gln-Arg-Tyr-NH2) | 1.2 | 0.26 | 3
3 | Me-Y[Aib]EGT[αMeF]TSDK([Gly-Gly-Gly-Gly-Pal])AI[Aib]LDKQRQ[Iva]EFVRHLLNK[Aib]TRQRY-NH2 | 0.1 | 0.074 | 0.1
4 | H-Y[Aib]EGT[αMeF]TSDK([Gly-Gly-Gly-Gly-Oda])[Aib]I[Aib]LDKQAQ[Iva]EFVRHLLNK[Aib]TRQR[Phe(2-F)]-NH2 (reading uncertain; also: printed as H-Tyr-Aib-Glu-Gly-Thr-αMePhe-Thr-Ser-Asp-Lys(-Gly-Gly-Gly-Gly-Oda)-Aib-Ile-Aib-Leu-Asp-Lys-Gln-Ala-Gln-Iva-Glu-Phe-Val-Arg-His-Leu-Leu-Asn-Lys-Aib-Thr-Arg-Gln-Arg-Phe(2-F)-NH2) | 0.11 | 0.071 | 2.1
5 | Me-Y[Aib]EGT[αMeF]TSDK([Gly-Gly-Gly-Gly-Oda])AI[Aib]LDKQRQ[Iva]EFVRHLLNK[Aib]TRQRY-NH2 (reading uncertain; also: printed as Me-Tyr-Aib-Glu-Gly-Thr-αMePhe-Thr-Ser-Asp-Lys(-Gly-Gly-Gly-Gly-Oda)-Ala-Ile-Aib-Leu-Asp-Lys-Gln-Arg-Gln-Iva-Glu-Phe-Val-Arg-His-Leu-Leu-Asn-Lys-Aib-Thr-Arg-Gln-Arg-Tyr-NH2) | 4.4 | 0.17 | 3.2
6 | H-Y[Aib]EGT[αMeF]TSDK([Gly-Gly-Gly-Gly-Pal])SI[Aib]LDKQRQ[Iva]EFVRHLLNK[Aib]TRQRY-NH2 | 0.05 | 0.056 | 0.048
7 | H-Y[Aib]EGT[αMeF]TSDK([Gly-Gly-Gly-Gly-Oda])SI[Aib]LDKQRQ[Iva]EFVRHLLNK[Aib]TRQRY-NH2 (reading uncertain; also: printed as H-Tyr-Aib-Glu-Gly-Thr-αMePhe-Thr-Ser-Asp-Lys(-Gly-Gly-Gly-Gly-Oda)-Ser-Ile-Aib-Leu-Asp-Lys-Gln-Arg-Gln-Iva-Glu-Phe-Val-Arg-His-Leu-Leu-Asn-Lys-Aib-Thr-Arg-Gln-Arg-Tyr-NH2) | 0.47 | 0.11 | 2.6
8 | Me-Y[Aib]EGT[αMeF]TSDK([Gly-Gly-Gly-Gly-Pal])SI[Aib]LDKQRQ[Iva]EFVRHLLNK[Aib]TRQRY-NH2 | 0.049 | 0.05 | 0.081
9 | Me-Y[Aib]EGT[αMeF]TSDK([Gly-Gly-Gly-Gly-Oda])SI[Aib]LDKQRQ[Iva]EFVRHLLNK[Aib]TRQRY-NH2 (reading uncertain; also: printed as Me-Tyr-Aib-Glu-Gly-Thr-αMePhe-Thr-Ser-Asp-Lys(-Gly-Gly-Gly-Gly-Oda)-Ser-Ile-Aib-Leu-Asp-Lys-Gln-Arg-Gln-Iva-Glu-Phe-Val-Arg-His-Leu-Leu-Asn-Lys-Aib-Thr-Arg-Gln-Arg-Tyr-NH2) | 1.9 | 0.091 | 2.4
10 | H-Y[Aib]EGT[αMeF]TSDK([Gly-Gly-Gly-Gly-Pal])[Aib]K[Aib]LDKQRQ[Iva]EFVRHLLNK[Aib]TRQRY-NH2 | 0.06 | 0.044 | 0.064
11 | H-Y[Aib]EGT[αMeF]TSDK([Gly-Gly-Gly-Gly-Oda])[Aib]K[Aib]LDKQRQ[Iva]EFVRHLLNK[Aib]TRQRY-NH2 (reading uncertain; also: printed as H-Tyr-Aib-Glu-Gly-Thr-αMePhe-Thr-Ser-Asp-Lys(-Gly-Gly-Gly-Gly-Oda)-Aib-Lys-Aib-Leu-Asp-Lys-Gln-Arg-Gln-Iva-Glu-Phe-Val-Arg-His-Leu-Leu-Asn-Lys-Aib-Thr-Arg-Gln-Arg-Tyr-NH2) | 0.94 | 1 | 1.5
12 | Me-Y[Aib]EGT[αMeF]TSDK([Gly-Gly-Gly-Gly-Pal])[Aib]K[Aib]LDKQRQ[Iva]EFVRHLLNK[Aib]TRQRY-NH2 | 0.069 | 0.051 | 0.068
13 | H-Y[Aib]EGT[αMeF]TSDK([Gly-Gly-Gly-Gly-Pal])SK[Aib]LDKQRQ[Iva]EFVRHLLNK[Aib]TRQRY-NH2 | 0.13 | 0.091 | 0.059
14 | H-Y[Aib]EGT[αMeF]TSDK([Gly-Gly-Gly-Gly-Pal])[Aib]I[Aib]LDKQRQ[Iva]EFVRHLLNK[Aib]TRQR[Phe(2-F)]-NH2 | 0.38 | 0.35 | 0.22
15 | H-Y[Aib]EGT[αMeF]TSDK([Gly-Gly-Gly-Gly-Oda])SK[Aib]LDKQRQ[Iva]EFVRHLLNK[Aib]TRQRY-NH2 (reading uncertain; also: printed as H-Tyr-Aib-Glu-Gly-Thr-αMePhe-Thr-Ser-Asp-Lys(-Gly-Gly-Gly-Gly-Oda)-Ser-Lys-Aib-Leu-Asp-Lys-Gln-Arg-Gln-Iva-Glu-Phe-Val-Arg-His-Leu-Leu-Asn-Lys-Aib-Thr-Arg-Gln-Arg-Tyr-NH2) | 1.3 | 0.61 | 1.3
